Here are results for three molecules from article PMC6128652, “Structure of the Cladosporium fulvum Avr4 effector in complex with (GlcNAc)6 reveals the ligand-binding mechanism and uncouples its intrinsic function from recognition by the Cf-4 resistance protein” (PLoS Pathogens, 2018).

“Also recorded” adds a separate entry of the source.

The test system of series [1] is germlings of Trichoderma viride. Put plainly: In vitro protection assay of T. viride germlings against chitinases. The settings on record: 5 μM protein with chitinases and β-1,3-glucanases; for protection of fungal hyphae against chitinases, fungal growth: 6–8 h. The class given is cell-based. The procedure:
The ability of the WT-CfAvr4 and of ChBD mutants to protect against chitinases was evaluated in in vitro protection assays conducted as described before. Briefly, spores of T. viride (3∙10^3) were pre-germinated overnight at room temperature in 100 μl of half-strength PDB medium in 96 well plates. The following day, 5 μM of WT-CfAvr4 or ChBD mutants were mixed with 7.5 units of Zymolyase (Zymo Research cat. no. E1004) and 0.2 units of bacterial chitinases (Sigma-Aldrich cat. no. C6137) and the mixture was added to the microtitre plate wells containing the pre-germinated spores in a final volume of 150 μl. Plates were incubated at 25°C for 6–8 h before evaluating under the microscope fungal growth and the ability of the proteins to provide protection against chitinases. Zymolase has β-1,3 glucanase and β-1,3-glucan laminaripentaohydrolase activity and is added to the mixture in order to remove the surface glucans from the fungal cell wall and thus expose the underlying chitin layer.

Series [2] in a line: Isothermal titration calorimetry (ITC) of CfAvr4 variants with chitin hexasaccharide. The class given is binding. The conditions noted are these: ITC; for increase in the Kd relative to WT-CfAvr4: (GlcNAc)6. The procedure:
A stock solution of the monomer of N-acetylglucosamine was prepared by dissolving the dry powder in a buffer containing 10 mM Bis-Tris, pH 6.5, 100 mM NaCl to a concentration of 0.100 g/L using analytic techniques. Standard solution of 0, 0.010, 0.025, 0.050, 0.075 g/L were prepared by serial dilutions. Using glass test tubes and pipets, 100 μL of each standard was mixed with 300μL of concentrated sulfuric acid and vortexed for 10 sec to mix. Solutions were incubated at RT for 10 min and then placed on ice to stop the reaction. […] Analytically prepared solution of the di- and tri-saccharide scaled linearly to the calibration curve. To determine the concentration of the chitin hexasaccharide solutions used in ITC, the solutions were diluted into the dynamic range of the calibration curve (S12 Fig) and subjected to the above procedure.
All ITC experiments were performed on a TA Instruments low volume NanoITC with a 186uL reaction cell and a reference cell filled with degassed Milli-Q grade water. Reactions were run in a buffer containing 10mM Bis-Tris, pH 6.5, 100 mM NaCl. The reservoir solution was filled with protein solution and continuously stirred while Chitin hexasaccharide solutions titrated in 2.5μL aliquots for 19 injections, with an initial 1μL injection, for a total injection volume of 48.5μL. The carbohydrate solutions were made by dissolving the dry powder in buffer to a concentration of 20mM (confirmed using methods described above) and then diluted to the working concentration using the final buffer exchange flow through to match the buffers as closely as possible. The integrated heats, after correction for the heat of dilution were analyzed using the NanoAnalyze software from […]. An individual binding site model was used to fit the binding isotherm. All experiments were replicated a minimum of three times.

Series [3] deals with subtilisin. Put plainly: Subtilisin treatment (resistance against proteolytic degradation). Format: in vitro ADME. Details: key to Stability (Subtilisin assay): S: stable; PU: partially unstable. The settings on record: for Stability (Subtilisin assay): 500 ng/μL subtilisin, 30 min, room temperature; for susceptibility to proteolytic degradation by subtilisin: 500 ng/μl subtilisin, band of mature CfAvr4 on SDS-PAGE. The procedure:
The WT-CfAvr4 and selected mutants thereof were exposed to the non-specific protease subtilisin in order to determine their resistance against proteolytic degradation. Treatments with subtilisin were made as previously described with minor modifications. Briefly, 40 μM of the E. coli-produced CfAvr4 and the selected CfAvr4 mutants were mixed with 10 mM of calcium chloride and 500 ng/μL of subtilisin (Sigma-Aldrich) in a total volume of 15 μL. Samples were incubated for 30 min at room temperature, after which period they were denatured by mixing with 10 mM PMSF and SDS-PAGE loading buffer, and heating at 98°C for 10 min. Digestion products were visualized on an SDS-PAGE after staining with Coomassie blue.

For series [4], the system named is Cf-4. Put plainly: Agrobacterium tumefaciens transient transformation assay (ATTA): co-expression with Cf-4 in Nicotiana benthamiana leaves. The conditions noted are these: N. benthamiana, three cell density ratios 0.5:1, 1:1, 2:1. The class given is in vivo. How it is done: The Agrobacterium tumefaciens transient transformation assay (ATTA) was used for the transient co-expression into leaves of Nicotiana benthamiana of Cf-4 with the WT-CfAvr4 and the mutants thereof tested in this study. Briefly, N. benthamiana plants were grown in a growth chamber with 16 h of artificial light and 70% humidity, at 25°C for 4 weeks. The true mature form of the WT-CfAvr4 (i.e. between Lys30-Gln115) and of the mutants thereof were singly cloned into the binary expression vector pICH47742 downstream of the PR1A signal sequence of Nicotiana tabacum for targeted secretion into the apoplast, and under the control of CaMV 35S promoter and NOS terminator. The tomato Cf-4 was cloned into pMOG800 as descripted before. Binary vector plasmids were transformed into A. tumefaciens strain GV3101 by electroporation. For the ATTA assay, agrobacteria transformed with pMOG800:Cf-4 was grown in 10mL LB-mannitol medium (LB medium with 10 g/L mannitol) amended with 50 μg/mL kanamycin and 25 μg/mL rifampicin, whereas agrobacteria transformed with pICH47742:WT-CfAvr4 or pICH4774:CfAvr4-mutants were grown in LB-mannitol amended with 100 μg/mL carbenicillin and 25 μg/mL rifampicin. All cultures were incubated at 28°C for 2 days, after which period they were pelleted at 2800g for 15 min, re-suspended in MMAi medium (5 g/L Murashige and Skoog basal salts, 20 g/L sucrose, 10 mM MES, and […]) at an optical cell density (A600) of 2.0, and further incubated for 2–4 h at room temperature. Agroinfiltrations were performed by mixing agrobacteria containing pMOG800:Cf-4 with agrobacteria containing pICH47742_WT-CfAvr4 or pICH47742:CfAvr4-mutants at three different ratios of optical cell densities, i.e. A6000.5:A6001.0, A6000.5:A6000.5, and A6000.5:A6000.25 of. The mixture of agrobacteria was infiltrated into the leaves of N. benthamiana plants using a 1 mL syringe and the induction of an HR in the infiltrated leaf sectors was evaluated at 5 days post-infiltrations. Control infiltrations were made using only the pMOG800:Cf-4 transformed agrobacteria and the agrobacteria containing pICH47742:CfAvr4 or the mutants thereof without mixing the two cultures, at cell densities of A6000.25, A6000.5, and A6001.0.

Series [5] deals with Cf-4 immune receptor. Put plainly: Pure protein infiltrations into tomato leaves of cv Purdue 135 (+ Cf-4), hypersensitive response. The class given is in vivo. The conditions noted are these: 5 dpi. An excerpt: Tomato seeds were obtained from the Tomato Genetic Resource Center (TGRC) at UC Davis. WT-CfAvr4 and mutants thereof with single point mutations at selected amino acids were produced and purified from E. coli Rosetta-gami B cells as description above. […]

B1: Q69N (protein)
chain: KAPKTQPYNPCKPQEVIDTKCMGPKDCLYPNPDSCTTYINCVPLDEVGNAKPVVKPCPKGLQWNDNVGKKWCDYPNLSTCPVKTPQ
modifications: left off: 6x His (two), N-terminal, state not stated
Turning to B1, in series [1], the “morphology of hyphae after chitinase treatment” value is “signs of osmotic injuries such as swollen segments and coagulated cytoplasm; also recorded: signs of osmotic injuries, such as swollen segments and coagulated cytoplasm”. For the same molecule, in series [1], the “protection of fungal hyphae against chitinases, fungal growth” value (from here on “protection of fungal hyphae”) is on record as “enable fungal growth to levels comparable to those of the WT-CfAvr4”. Moreover, in series [2], the “increase in the Kd relative to WT-CfAvr4” value is recorded as ~ 20 fold. Further, in series [3], the “Stability (Subtilisin assay)” value is given as “PU”. For the same molecule, the “susceptibility to proteolytic degradation by subtilisin” value (“susceptibility” below) in series [3] is “vulnerable to proteolytic degradation; also recorded: decreased intensity of this band”. Also, the “HR on transient co-expression with Cf-4” value in series [4] was “strong and similar in intensity HR”. Besides, the “Cf-4-mediated HR after protein infiltration” value (“Cf-4-mediated HR” below) is reported as “weak HR response” in series [5] (5 μg/ml); “elicited an HR” in series [5] (10 μg/ml); “only partially trigger an HR” in series [5] (both 5 μg/ml and 10 μg/ml).

B2: W100A (protein)
chain: KAPKTQPYNPCKPQEVIDTKCMGPKDCLYPNPDSCTTYIQCVPLDEVGNAKPVVKPCPKGLQWNDNVGKKACDYPNLSTCPVKTPQ
modifications: left off: 6x His (two), N-terminal, state not stated
B2: the “protection of fungal hyphae” value in series [1] is “essentially failed to protect the fungal hyphae against chitinases; also recorded: fail to protect the fungal hyphae”. The “effect of the mutation on binding to (GlcNAc)6” value in series [2] (compared with WT-CfAvr4) was “abolished all detectable binding”. In series [3], the “Stability (Subtilisin assay)” value is reported as “S” and the “susceptibility” value is “as resilient to proteolysis as the WT-CfAvr4”. Further, in series [4], the “HR on transient co-expression with Cf-4” value was “full HR; also recorded: strong and similar in intensity HR”. In addition, the “Cf-4-mediated HR” value in series [5] (both 5 μg/ml and 10 μg/ml) is “strong and equal in intensity HR; also recorded: full HR; also recorded: strong and equally in intensity necrosis”.

B3: K84A (protein)
chain: KAPKTQPYNPCKPQEVIDTKCMGPKDCLYPNPDSCTTYIQCVPLDEVGNAKPVVAPCPKGLQWNDNVGKKWCDYPNLSTCPVKTPQ
modifications: left off: 6x His (two), N-terminal, state not stated
With B3, in series [1], the “morphology of hyphae after chitinase treatment” value is “signs of osmotic injuries such as swollen segments and coagulated cytoplasm; also recorded: signs of osmotic injuries, such as swollen segments and coagulated cytoplasm”; the “protection of fungal hyphae” value was “enable fungal growth to levels comparable to those of the WT-CfAvr4”. In addition, the “increase in the Kd relative to WT-CfAvr4” value in series [2] is ~ 20 fold. In series [3], the “Stability (Subtilisin assay)” value is reported as “S” and the “susceptibility” value is reported as “as resilient to proteolysis as the WT-CfAvr4”. The “HR on transient co-expression with Cf-4” value in series [4] was “full HR; also recorded: strong and similar in intensity HR”. In series [5] (both 5 μg/ml and 10 μg/ml), the “Cf-4-mediated HR” value is “strong and equal in intensity HR; also recorded: full HR; also recorded: strong and equally in intensity necrosis”.
